Source: patent publication EP4682166A1 (Guangzhou Enmai Biotechnology Co., Ltd, dated 2026)

T1: human NMI (N-myc Interacting protein), recombinant protein (human, UniProt Q13287 1-307, limits assumed)
T1 construct: Gene ID: 9111; also called hNMI; antigen
T1 sequence (looked up): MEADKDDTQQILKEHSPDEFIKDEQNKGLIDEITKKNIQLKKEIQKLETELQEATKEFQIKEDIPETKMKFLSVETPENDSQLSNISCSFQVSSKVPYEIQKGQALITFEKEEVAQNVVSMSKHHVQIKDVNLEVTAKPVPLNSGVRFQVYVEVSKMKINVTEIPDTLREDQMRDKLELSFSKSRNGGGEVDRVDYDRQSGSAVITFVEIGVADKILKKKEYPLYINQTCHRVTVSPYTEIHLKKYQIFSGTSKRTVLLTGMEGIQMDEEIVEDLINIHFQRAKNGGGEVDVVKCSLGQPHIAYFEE

B1: monoclonal antibody B-8 (antibody, V domains shown)
VH: QSLEESGGDLVKPGASLTLTCTASGFSFSSSYYMCWVRQAPGKGLEWIACIYAGSSGSTYYASWAKGRFTISKTSSTTVTLQMTSLTAADTATYFCAREYSYDDYGDFWGFNLWGPGTLVTVSS
VL: ALVMTQTPSSVSAAVGGTVTINCQASQNIYTNLAWYQQKPGQPPKLLIYGASNLESGVPSRFKGSGSGTEYTLTISDLECDDAATYYCQSSLYSRIADRANAFGGGTEVVVK
notes: Rabbit monoclonal antibody; also called B8-1
B2: monoclonal antibody 240B10-1 (antibody, V domains shown)
VH: QSLEESGGRLVTPGGSLTLTCTVSGIDLSSYTMGWVRQAPGKGLEYIGIISGGGRTYYASWAKGRFTISKTSSTTVDLKVTSLTTEDTATYFCARIYTLWGQGTLVTVSS
VL: QVLTQTLASVSAAVGGTVTINCQSSQSVYNNDYLAWFQQKSGQPPKQLIHSASKLASGVPSRFKGSGSGTQFTLTINDVQCDDAATYYCLGGYDCYSADCNVFGGGTEVVVK
notes: Rabbit monoclonal antibody

How the values were obtained:
[1] = target: T1, human NMI (N-myc Interacting protein), …; assay: sandwich ELISA; detection 39B4-1-biotin; hNMI 11.111 ng/mL
[2] = target: T1, human NMI (N-myc Interacting protein), …; assay: sandwich ELISA; detection 94C4-1-biotin 0.5µg/mL; hNMI 781.250 pg/mL
[3] = target: T1, human NMI (N-myc Interacting protein), …; assay: sandwich ELISA; detection 39B4-1-biotin; hNMI 3.704 ng/mL
[4] = target: T1, human NMI (N-myc Interacting protein), …; assay: sandwich ELISA; detection 98G10-1-biotin; hNMI 33.333 ng/mL
[5] = target: T1, human NMI (N-myc Interacting protein), …; assay: sandwich ELISA; detection 39B4-1-biotin; hNMI 1.235 ng/mL
[6] = target: T1, human NMI (N-myc Interacting protein), …; assay: sandwich ELISA; detection 94C4-1-biotin 0.5µg/mL; hNMI 25,000.000 pg/mL
[7] = target: T1, human NMI (N-myc Interacting protein), …; assay: sandwich ELISA; detection 98G10-1-biotin; hNMI 100.000 ng/mL
[8] = target: T1, human NMI (N-myc Interacting protein), …; assay: sandwich ELISA; detection 94C4-1-biotin 1µg/mL; hNMI 1,562.500 pg/mL
[9] = target: T1, human NMI (N-myc Interacting protein), …; assay: sandwich ELISA; detection 94C4-1-biotin 1µg/mL; hNMI 25,000.000 pg/mL
[10] = target: T1, human NMI (N-myc Interacting protein), …; assay: sandwich ELISA; detection 98G10-1-biotin; hNMI 3.704 ng/mL
[11] = target: T1, human NMI (N-myc Interacting protein), …; assay: sandwich ELISA; detection 94C4-1-biotin 1µg/mL; hNMI 12,500.000 pg/mL
[12] = target: T1, human NMI (N-myc Interacting protein), …; assay: sandwich ELISA; detection 94C4-1-biotin 0.5µg/mL; hNMI 3,125.000 pg/mL
[13] = target: T1, human NMI (N-myc Interacting protein), …; assay: sandwich ELISA; detection 94C4-1-biotin 0.5µg/mL; hNMI 97.656 pg/mL
[14] = target: T1, human NMI (N-myc Interacting protein), …; assay: sandwich ELISA; detection 98G10-1-biotin; hNMI 11.111 ng/mL
[15] = target: T1, human NMI (N-myc Interacting protein), …; assay: sandwich ELISA; detection 94C4-1-biotin 1µg/mL; hNMI 3,125.000 pg/mL
[16] = target: T1, human NMI (N-myc Interacting protein), …; assay: sandwich ELISA; detection 94C4-1-biotin 0.5µg/mL; hNMI 390.625 pg/mL
[17] = target: T1, human NMI (N-myc Interacting protein), …; assay: sandwich ELISA; detection 94C4-1-biotin 1µg/mL; hNMI 48.828 pg/mL
[18] = target: T1, human NMI (N-myc Interacting protein), …; assay: sandwich ELISA; detection 94C4-1-biotin 0.5µg/mL; hNMI 48.828 pg/mL
[19] = target: T1, human NMI (N-myc Interacting protein), …; assay: sandwich ELISA; detection 94C4-1-biotin 0.5µg/mL; hNMI 50,000.000 pg/mL
[20] = target: T1, human NMI (N-myc Interacting protein), …; assay: sandwich ELISA; detection 94C4-1-biotin 0.5µg/mL; hNMI 1,562.500 pg/mL
[21] = target: T1, human NMI (N-myc Interacting protein), …; assay: sandwich ELISA; detection 98G10-1-biotin; hNMI 1.235 ng/mL
[22] = target: T1, human NMI (N-myc Interacting protein), …; assay: sandwich ELISA; detection 94C4-1-biotin 1µg/mL; hNMI 6,250.000 pg/mL
[23] = target: T1, human NMI (N-myc Interacting protein), …; assay: sandwich ELISA; detection 39B4-1-biotin; hNMI 33.333 ng/mL

Row | Binder | OD450 [1] [OD450] | OD450 [2] [OD450] | OD450 [3] [OD450] | OD450 [4] [OD450] | OD450 [5] [OD450] | OD450 [6] [OD450] | OD450 [7] [OD450] | OD450 [8] [OD450] | OD450 [9] [OD450] | OD450 [10] [OD450] | OD450 [11] [OD450] | OD450 [12] [OD450] | OD450 [13] [OD450] | OD450 [14] [OD450] | OD450 [15] [OD450] | OD450 [16] [OD450] | OD450 [17] [OD450] | OD450 [18] [OD450] | OD450 [19] [OD450] | OD450 [20] [OD450] | further results
1 | B1 | 1.25 | 0.265 | 0.563 | 2.48 | 0.291 | 2.71 | 3.02 | 0.446 | 2.79 | 0.607 | 2.03 | 0.712 | 0.113 | 1.38 | 0.75 | 0.178 | 0.139 | 0.102 | 3.17 | 0.42 | OD450 [21]: 0.307 OD450; OD450 [22]: 1.3 OD450; OD450 [23]: 2.43 OD450
2 | B2 | 1.71 | 0.396 | 0.785 | 2.56 | 0.35 | 2.94 | 3.14 | 0.568 | 2.75 | 0.777 | 2.17 | 1.29 | 0.146 | 1.7 | 0.958 | 0.268 | 0.167 | 0.125 | 3.33 | 0.907 | OD450 [21]: 0.362 OD450; OD450 [22]: 1.47 OD450; OD450 [23]: 2.67 OD450
